From US20200165308A1 (published 2020)

Target: Netrin-1 (NET1) from Mus musculus lacking the C-terminal domain (NP_032770, aa: 24-457) (Mus musculus, UniProt O09118 24-457)
Assay: solid-phase binding assay

Kd: 7.58 nM
B1: full-length ectodomain of NEO1 (AAH54540, aa: 41-1107) (receptor)
chain: GAAATKSGSPPQSAGASVRTFTPFYFLVEPVDTLSVRGSSVILNCSAYSEPSPNIEWKKDGTFLNLESDDRRQLLPDGSLFISNVVHSKHNKPDEGFYQCVATVDNLGTIVSRTAKLTVAGLPRFTSQPEPSSVYVGNSAILNCEVNADLVPFVRWEQNRQPLLLDDRIVKLPSGTLVISNATEGDGGLYRCIVESGGPPKFSDEAELKVLQDPEEIVDLVFLMRPSSMMKVTGQSAVLPCVVSGLPAPVVRWMKNEEVLDTESSGRLVLLAGGCLEISDVTEDDAGTYFCIADNGNKTVEAQAELTVQVPPGFLKQPANIYAHESMDIVFECEVTGKPTPTVKWVKNGDVVIPSDYFKIVKEHNLQVLGLVKSDEGFYQCIAENDVGNAQAGAQLIILEHDVAIPTLPPTSLTSATTDHLAPATTGPLPSAPRDVVASLVSTRFIKLTWRTPASDPHGDNLTYSVFYTKEGVARERVENTSQPGEMQVTIQNLMPATVYIFKVMAQNKHGSGESSAPLRVETQPEVQLPGPAPNIRAYATSPTSITVTWETPLSGNGEIQNYKLYYMEKGTDKEQDIDVSSHSYTINGLKKYTEYSFRVVAYNKHGPGVSTQDVAVRTLSDVPSAAPQNLSLEVRNSKSIVIHWQPPSSTTQNGQITGYKIRYRKASRKSDVTETLVTGTQLSQLIEGLDRGTEYNFRVAALTVNGTGPATDWLSAETFESDLDETRVPEVPSSLHVRPLVTSIVVSWTPPENQNIVVRGYAIGYGIGSPHAQTIKVDYKQRYYTIENLDPSSHYVITLKAFNNVGEGIPLYESAVTRPHTVPDPTPMMPPVGVQASILSHDTIRITWADNSLPKHQKITDSRYYTVRWKTNIPANTKYKNANATTLSYLVTGLKPNTLYEFSVMVTKGRRSSTWSMTAHGATFELVPTSPPKDVTVVSKEGKPRTIIVNWQPPSEANGKITGYIIYYSTDVNAEIHDWVIEPVVGNRLTHQIQELTLDTPYYFKIQARNSKGMGPMSEAVQFRTPKALGSAGKGSRLPDLGSDYKPPMSGSNSPHGSPTSPLDSN
